Here are results for 19 molecules from patent US20190248902A1 (published 2019).

Positions count from the first letter of the chain named.

Assay [1] deals with T1, recombinant, soluble human ASGR-1 (human, UniProt P07306 62-291).
T1 construct: biotinylated in the binning assay; also called soluble huASGR-1; Soluble ASGR-1 (Amgen)
T1 sequence: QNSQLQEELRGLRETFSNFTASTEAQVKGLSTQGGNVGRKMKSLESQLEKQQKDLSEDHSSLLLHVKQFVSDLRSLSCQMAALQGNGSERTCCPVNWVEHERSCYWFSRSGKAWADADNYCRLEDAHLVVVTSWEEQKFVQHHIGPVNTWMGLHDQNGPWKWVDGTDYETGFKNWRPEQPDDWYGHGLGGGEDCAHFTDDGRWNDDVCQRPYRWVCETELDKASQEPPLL
As to the kind of experiment: Octet BLI dissociation, pH 5.6 plus calcium. The essentials:
(§1)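 Antibodies were captured on anti-human Fc biosensors, and soluble ASGR-1 (6 ug/ml) was associated for 2 min in Tris buffer containing 1 mM CaCl2 at pH 7.4, followed by 10 min dissociation under each test condition. The signal at the end of association was set as 100%. Percent ASGR-1 still bound after 1 min of dissociation was compared with the pH 7.4 plus calcium control, and >10% extra dissociation was scored as sensitive.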

Assay [2] addresses T1, recombinant, soluble human ASGR-1. As to the kind of experiment: Octet BLI dissociation, pH 5.6 minus calcium. In short, it runs like this: as §1
Assay [3] has the same target. As to the kind of experiment: Octet BLI dissociation, pH 7.4 minus calcium. In short, it runs like this: as §1

B1: 60G2 (antibody, V domains shown)
VH: QVQLVESGGGVVQPGRSLRLSCAASGFTFSSYGMHWVRQAPGKGLEWVAVIWYDGSNKYYADSVKGRFTISRDNSKNTLYLQMNSLRAEDTAVYYCARRYSRSWTGGMDVWGQGTTVTVSS
VL: DIVMTQTPLSLSVTPGQSASISCKSSQSLLHSEGKTYLYWYLQKPGQPPQLLIYEVSNRISGVPDRFSGSGSGTDFTLKISRVEAEDVGVYYCMQSIQLPLTFGGGTKVEIK
notes: hybridoma mAb
As to B1, the “% Change Compared to pH 7.4 + Calcium” value came to 7% in assay [1], 31% in assay [2] and 36% in assay [3].

B2: 173C11 (antibody, V domains shown)
VH: B1 VH with M34I, V50L, W52F, Q82H, N84S, R102S, T105S
VL: DIVMTQTPLSLSVTPGQPASISCKSSQSLLHSEGKTYLYWYLQKPGQPPQLLIYEVSHRFSGVPDRFSGSGSGTDFTLKISRVEAEDVGVYYCMQSIQLLTFGGGTKVEIK
notes: hybridoma mAb
Take B2: the “% Change Compared to pH 7.4 + Calcium” value in assay [1] came out at 0%; in assay [2], 29%; in assay [3] it was 17%.

B3: 49C1 (antibody, V domains shown)
VH: B1 VH with A23T, R102S, T105S
VL: DIVMTQTPLSLSVTPGQPASISCKSSQSLLHREGKTYLYWYLQKPGQAPQFLIFEVSHRFSGVPDRFSGSGSGTDFTLKISRVEAEDVGVYYCMQSIQIPITLGQGTRLEIK
notes: hybridoma mAb
As for B3, the “% Change Compared to pH 7.4 + Calcium” value in assay [1] amounted to 23%; in assay [2] it was 64%; in assay [3] it was 72%.

B4: 148H10 (antibody, V domains shown)
VH: B1 VH with A61G, R102S, T105S
VL: B1 VL with S18P, N58Y, I60V
notes: hybridoma mAb
Regarding B4, the entries for the “% Change Compared to pH 7.4 + Calcium” value in assay [1], in assay [2] and in assay [3] were 10%, 47% and 45%, respectively.

B5: 47C1 (antibody, V domains shown)
VH: B1 VH with S31D, A40T, Y80F, A88D, T105V
VL: B1 VL with S18P, K24T, I60F, Y91F, L101W, G105Q
notes: hybridoma mAb
Take B5: the entries for the “% Change Compared to pH 7.4 + Calcium” value in assay [1], in assay [2] and in assay [3] were -1%, 10% and 13%, respectively.

B6: 60C12 (antibody, V domains shown)
VH: B1 VH with A61V
VL: B1 VL with S18P, L51F, I60F, V90I, Q98K, L99Y
notes: hybridoma mAb
As for B6, the “% Change Compared to pH 7.4 + Calcium” value was -3% in assay [1], 12% in assay [2] and 14% in assay [3].

B7: 179C2 (antibody, V domains shown)
VH: B1 VH with V50L, W52F, Y80F, R102G, T105S
VL: B2 VL with L99V
notes: hybridoma mAb
For the molecule B7, the “% Change Compared to pH 7.4 + Calcium” value in assay [1] was 0%; in assay [2] it was 45%; in assay [3], 25%.

B8: 72F5 (antibody, V domains shown)
VH: EVQLLESGGGLVQPGGSLRLSCAASGFTFSSYAMIWVRQAPGKGLEWVSTISGSGGYTYSADSVKGRFTISRDNSKNTLYLQMNSLRAEDTAVYYCARRIAVTGTEWYDPWGQGTLVTVSS
VL: DIQMTQSPSSLSASVGDRVIIPCRASQNISSYLNWYQQKPGKAPKLLIYAASSLQSGVPSRFSGSGSGTDFTLTISSLQPEDFATYSCQQTYSTPTFGQGTRLDIN
notes: hybridoma mAb
Consider B8, for which the “% Change Compared to pH 7.4 + Calcium” value was 20% in assay [1], 30% in assay [2] and 64% in assay [3].

B9: 208A2 (antibody, V domains shown)
VH: QVQLQESGPGLVKPSETLSLNCTVSGGSIRSYYWSWIRQPAGKGLEWIGRIYTSGSTDYNPSLKSRITMSVDTSKNQFSLKLSSVTAADTAVYYCARGFGDWDYWGQGTLVTVSS
VL: DIQMTQSPSSLSASVGDRVTITCRTSQGIRNDLGWYQQQPGKTPKRLIYAASSLLSGVPSRFSGSRSGTDFTLTISSLQPEDFATYYCLQYNSYPPTFGQGTRLEIK
notes: hybridoma mAb
Take B9: the “% Change Compared to pH 7.4 + Calcium” value in assay [1] is -10%; in assay [2], -5%; in assay [3], -4%.

B10: 210G10 (antibody, V domains shown)
VH: B9 VH
VL: B9 VL with C23F, L47M, L55F
notes: hybridoma mAb
On to B10, for which the figures for the “% Change Compared to pH 7.4 + Calcium” value in assay [1], in assay [2] and in assay [3] were -10%, -5% and -3%, respectively.

B11: 4B1 (antibody, V domains shown)
VH: QVQLQESGPGLVKPSETLSLTCSVSGDSISSYSWSWIRQPAGKGLEWIGRIYTSGSTNYIPSLKSRITMSVDTSKKQFSLKLSSVTAADTAVYYCARDLKSSGCLFFDYWGQGTLVTVSS
VL: DIQMTQSPSSLSASVGDRVTITCRASHTIRTYLNWYQQKPGKAPKLLIYAASSLQSGVPSRINGSGSGTDFTLTITNLQPEDFATYYCQQSYNISFTFGPGTKVDIK
notes: hybridoma mAb
For the molecule B11, the “% Change Compared to pH 7.4 + Calcium” value in assay [1] was -5%; in assay [2] it was -2%; in assay [3], 6%.

B12: 147E9 (antibody, V domains shown)
VH: EVQLVESGGGLVQPGGSLRLSCAASGFTFSSYSMNWVRQAPGKGLEWVSSISGRNTTIYYADSVKGRFTISRDNAKNSLYLQMNSLRDEDTAVYYCSRDRGSCWGQGTLVTVSS
VL: DIQMTQSPSSLSASVGDRVTITCRASQDINNYLAWFQQKPGKAPKSLIVAASSLQSGVPSKFSGSGSGTDFTLTISSLQPEDFATYYCQQYNSYPLTFGGGTKVEIK
notes: hybridoma mAb
Consider B12, for which the “% Change Compared to pH 7.4 + Calcium” value in assay [1] is -4%; in assay [2] it was 20%; in assay [3] it was 5%.

B13: 62H10 (antibody, V domains shown)
VH: EVQLVESGGGLVKPGGSLRLSCAASGFTFSSYSMNWVRQAPGKGLEWVSSISSSSSYIYYADSVKGRFTISRDNAKNSLYLQMNSLRAEDTAVYYCARGGSRGFDPWGQGTLVTVSS
VL: DIQMTQSPSSLSASVGDRVTITCRASQSITSYLNWYQQKPGKVPKLLISTASSLQSGVPSRFSGSGSGTDFTLTISSLQPEDFATYYCQQSHSFPFTFGPGTNVDFK
notes: hybridoma mAb
For B13, the “% Change Compared to pH 7.4 + Calcium” value in assay [1] was -2%; in assay [2] it was 14%; in assay [3], 13%.

B14: 72G9 (antibody, V domains shown)
VH: B13 VH with S53G, Y95F
VL: B13 VL with V43A, S49Y, N103K, F106I
notes: hybridoma mAb
Regarding B14, the “% Change Compared to pH 7.4 + Calcium” value was -7% in assay [1], -1% in assay [2] and 1% in assay [3].

B15: 64G12 (antibody, V domains shown)
VH: EVQLLESGGGLVQPGGSLRLSCAASGFTFSSNAMSWVRQAPGKGLEWVSVISGSGGSTYYADSVKGRFTISRDNSKNTLYLQMNSLRAEDTALYYCAKRNYDDAFDIWGQGTMVTVSS
VL: DIQMTQSPSSVSASVGDRVTITCRASQNITTWLAWYQQKPGKAPKLLISAASSLQSGVPSRFSGSGSGTDFTLTISSLQPEDFATYICQQANSFPFTFGPGTKLDIK
notes: hybridoma mAb
With B15, the results for the “% Change Compared to pH 7.4 + Calcium” value in assay [1], in assay [2] and in assay [3] were 10%, 24% and 24%, respectively.

B16: 194A4 (antibody, V domains shown)
VH: QVQLVQSGTEVKKPGASLKVSCKASGYTFTVYYLNWVRQAPGQGLEWMGWINPNSGGTNYAQKFQGRVTMTRDTSISTAYMELSRLRSDDTAVYYCARGYDILTGWGQGTLVTVSS
VL: EIVLTQSPGTLSLSPGERATLSCRASRGVSNIYLAWYQQKPGQAPRLLIYGASNRATGIPDRFSGSGSGTDFTLTISRLEPEDFAVYYCQHNDYSMFTFGPGTKVDIK
notes: hybridoma mAb
Take B16: the “% Change Compared to pH 7.4 + Calcium” value in assay [1] is -7%; in assay [2], -3%; in assay [3], -1%.

B17: 184E7 (antibody, V domains shown)
VH: QVQLVQSGAEVKTPGASVKVSCRASGYTFTSYNMHWVRQVPGQGLEWMGWINPNNGGSNYTQKFQGRVTMTRDTSISTAYMELSRLRSDDTAVYYCARKFGDWGQGTLVTVSS
VL: DIQMTQSPSSRSASIGERVTITCRASQGISNYLAWIQQKPGTAPKSLIYAASSLQSGVSSRFSGSGFGTDFTITISSVQREDFATYYCQQYNGYPFTFGHGTKVDIK
notes: hybridoma mAb
Regarding B17, the “% Change Compared to pH 7.4 + Calcium” value in assay [1] was -9%; in assay [2], -3%; in assay [3], 1%.

B18: 65D5 (antibody, V domains shown)
VH: QVQLVQSGAEVKKPGASVKVSCKASGYTFPSYGISWVRQAPGQGLEWMGWISAYSGNTNYAQKLQGRVTMTTDTSTSTAYMELRSLRSDDTAVYFCARGEAVAVFDPWGQGTLVTVSS
VL: DIQMTQSPSSLSASVGDRVTITCRASQDINNYLAWFQQKPGKAPRSLIYAASSLHSGVPSQFSASGSGSDFTLTISSLQPEDFATYYCPLYKSYPLTFGPGTKVDIK
notes: hybridoma mAb
On to B18, for which the “% Change Compared to pH 7.4 + Calcium” value in assay [1] was 7%; in assay [2] it was 61%; in assay [3], 34%.

B19: 66H11 (antibody, V domains shown)
VH: B18 VH with P30A, S31T, S55N, F95Y
VL: DIQMTQFPSSLFAFVGDRVTITCPASQGISNYLAWFQQKPGKAPKSLIYGAFNLHSGVPSKFSGSGFGTDFTLTINSLQPEDFANYYCQQYSCYPFTFGHGTKVDIK
notes: hybridoma mAb
Take B19: the “% Change Compared to pH 7.4 + Calcium” value in assay [1] came to 36%; in assay [2], 52%; in assay [3] it was 81%.
